Assay results taken from publication PMC9482650, “Quantitative fragmentomics allow affinity mapping of interactomes” (Nature Communications, 2022).

Columns and labels:
Experiment in all cases: holdup assay
Parameters in all cases: key: below the threshold = too weak to quantify, mostly under pKd 3.1 to 4
[1] = molecular target: ARHGEF12, Q9NZN5-2
[2] = molecular target: T1, DFNB31_1, Q9P202
T1 sequence (Q9P202 135-233, limits assumed, looked up): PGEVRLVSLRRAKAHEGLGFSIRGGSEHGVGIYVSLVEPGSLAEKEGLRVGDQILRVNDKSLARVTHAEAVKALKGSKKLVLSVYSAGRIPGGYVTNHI

[3] = molecular target: DLG1_2, Q12959
Sequence of DLG1_2, Q12959 (Q12959 314-412): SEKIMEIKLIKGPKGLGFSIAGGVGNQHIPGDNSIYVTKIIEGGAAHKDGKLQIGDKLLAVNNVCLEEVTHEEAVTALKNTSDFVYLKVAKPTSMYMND

[4] = molecular target: DLG4_1, P78352
Sequence of DLG4_1, P78352 (P78352 62-152): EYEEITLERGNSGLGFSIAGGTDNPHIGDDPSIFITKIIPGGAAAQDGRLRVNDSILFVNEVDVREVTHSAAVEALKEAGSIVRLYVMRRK

[5] = molecular target: T2, GRIP1_3, Q9Y3R0
T2 sequence (Q9Y3R0 247-346, limits assumed, looked up): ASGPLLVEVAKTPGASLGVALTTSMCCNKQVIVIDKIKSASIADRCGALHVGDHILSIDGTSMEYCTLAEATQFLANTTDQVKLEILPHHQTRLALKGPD

[6] = molecular target: GRIP2_4, Q9C0E4
Sequence of GRIP2_4, Q9C0E4 (Q9C0E4 446-548): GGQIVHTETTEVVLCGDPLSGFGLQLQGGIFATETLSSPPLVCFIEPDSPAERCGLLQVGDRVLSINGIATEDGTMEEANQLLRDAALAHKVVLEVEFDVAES

[7] = molecular target: T3, HTRA4, P83105
T3 sequence (P83105 378-476, limits assumed, looked up): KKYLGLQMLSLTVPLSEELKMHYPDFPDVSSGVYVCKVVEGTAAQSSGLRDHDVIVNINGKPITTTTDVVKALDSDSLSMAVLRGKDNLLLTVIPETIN

[8] = molecular target: IL16_1, Q14005
Sequence of IL16_1, Q14005 (Q14005 210-306): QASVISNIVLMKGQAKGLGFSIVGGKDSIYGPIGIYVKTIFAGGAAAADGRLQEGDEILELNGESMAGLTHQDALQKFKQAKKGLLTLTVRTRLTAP

[9] = molecular target: Inadl_2, Q8NI35
Sequence of Inadl_2, Q8NI35 (Q8NI35 238-335): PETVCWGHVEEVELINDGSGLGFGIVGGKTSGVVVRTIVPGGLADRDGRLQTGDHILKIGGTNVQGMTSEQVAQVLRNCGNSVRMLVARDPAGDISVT

[10] = molecular target: Inadl_5, Q8NI35
Sequence of Inadl_5, Q8NI35 (Q8NI35 673-780): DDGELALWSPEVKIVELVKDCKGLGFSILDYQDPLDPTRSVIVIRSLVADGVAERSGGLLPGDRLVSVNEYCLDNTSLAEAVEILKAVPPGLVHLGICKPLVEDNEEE

[11] = molecular target: LAP2, Q96RT1
Sequence of LAP2, Q96RT1 (Q96RT1 other isoform, or with tags, fused parts or gaps): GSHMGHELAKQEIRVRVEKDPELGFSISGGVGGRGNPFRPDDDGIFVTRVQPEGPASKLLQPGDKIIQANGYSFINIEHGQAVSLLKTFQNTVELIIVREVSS

[12] = molecular target: T4, LIN7A, O14910
T4 sequence (O14910 103-200, limits assumed, looked up): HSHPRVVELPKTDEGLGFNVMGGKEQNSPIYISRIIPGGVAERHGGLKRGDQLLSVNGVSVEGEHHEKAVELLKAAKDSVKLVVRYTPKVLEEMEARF

[13] = molecular target: T5, LRRC7, Q96NW7
T5 sequence (Q96NW7 1440-1537, limits assumed, looked up): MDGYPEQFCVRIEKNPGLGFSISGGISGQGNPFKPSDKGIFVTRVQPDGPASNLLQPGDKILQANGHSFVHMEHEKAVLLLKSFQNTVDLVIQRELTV

[14] = molecular target: MAGI1_2, Q96QZ7
Sequence of MAGI1_2, Q96QZ7 (Q96QZ7 456-580): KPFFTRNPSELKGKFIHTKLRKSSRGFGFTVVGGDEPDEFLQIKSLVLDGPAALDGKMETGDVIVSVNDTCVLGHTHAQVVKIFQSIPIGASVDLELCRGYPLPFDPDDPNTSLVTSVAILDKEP

[15] = molecular target: MAST2, Q6P0Q8
Sequence of MAST2, Q6P0Q8 (Q6P0Q8 1099-1202): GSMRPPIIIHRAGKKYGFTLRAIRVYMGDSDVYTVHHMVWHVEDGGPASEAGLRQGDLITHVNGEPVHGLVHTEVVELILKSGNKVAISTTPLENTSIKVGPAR

[16] = molecular target: T6, MPP7, Q5T2T1
T6 sequence (Q5T2T1 134-230, limits assumed, looked up): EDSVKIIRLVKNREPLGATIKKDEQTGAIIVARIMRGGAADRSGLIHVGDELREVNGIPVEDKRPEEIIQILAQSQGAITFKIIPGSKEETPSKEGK

[17] = molecular target: T7, NHERF3_1, Q5T2W1
T7 sequence (Q5T2W1 4-100, limits assumed, looked up): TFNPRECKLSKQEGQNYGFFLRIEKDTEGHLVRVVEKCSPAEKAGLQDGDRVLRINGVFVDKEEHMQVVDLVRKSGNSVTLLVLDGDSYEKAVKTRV

[18] = molecular target: T8, NHERF3_4, Q5T2W1
T8 sequence (Q5T2W1 373-468, limits assumed, looked up): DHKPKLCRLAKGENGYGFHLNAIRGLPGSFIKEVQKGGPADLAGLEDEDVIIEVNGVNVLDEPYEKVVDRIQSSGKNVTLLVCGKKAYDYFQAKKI

[19] = molecular target: PARD3_3, Q8TEW0
Sequence of PARD3_3, Q8TEW0 (Q8TEW0 582-685): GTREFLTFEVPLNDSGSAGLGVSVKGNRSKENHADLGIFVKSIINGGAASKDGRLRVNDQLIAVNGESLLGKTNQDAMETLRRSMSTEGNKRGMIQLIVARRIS

[20] = molecular target: T9, PCLO, Q9Y6V0
T9 sequence (Q9Y6V0 4491-4600, limits assumed, looked up): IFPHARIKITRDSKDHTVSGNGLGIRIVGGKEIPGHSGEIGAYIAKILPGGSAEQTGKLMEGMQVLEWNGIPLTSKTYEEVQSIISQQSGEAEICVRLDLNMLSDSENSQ

[21] = molecular target: T10, PDZRN3_1, Q9UPQ7
T10 sequence (Q9UPQ7 244-349, limits assumed, looked up): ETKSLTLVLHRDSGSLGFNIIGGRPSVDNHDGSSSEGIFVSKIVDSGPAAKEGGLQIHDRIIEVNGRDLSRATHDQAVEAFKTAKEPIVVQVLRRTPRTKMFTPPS

[22] = molecular target: PICK1, Q9NRD5
Sequence of PICK1, Q9NRD5 (Q9NRD5 17-115): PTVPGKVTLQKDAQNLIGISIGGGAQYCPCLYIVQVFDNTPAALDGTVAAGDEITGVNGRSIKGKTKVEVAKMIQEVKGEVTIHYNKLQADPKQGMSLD

[23] = molecular target: T11, RADIL, Q96JH8
T11 sequence (Q96JH8 971-1071, limits assumed, looked up): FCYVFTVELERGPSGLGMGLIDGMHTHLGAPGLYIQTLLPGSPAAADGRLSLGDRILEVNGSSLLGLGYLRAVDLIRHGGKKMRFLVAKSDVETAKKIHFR

[24] = molecular target: T12, RHPN1, Q8TCX5
T12 sequence (Q8TCX5 508-602, limits assumed, looked up): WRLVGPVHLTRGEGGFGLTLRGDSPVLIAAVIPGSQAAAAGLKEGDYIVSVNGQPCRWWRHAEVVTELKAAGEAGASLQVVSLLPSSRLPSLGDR

[25] = plain residues with an end cap or a label only (N-terminal biotin on a linker: ttds)
[26] = plain residues with an end cap or a label only (N-terminal biotin on a linker: ahx)
[27] = plain residues with an end cap or a label only (N-terminal biotin on a linker: gsgsgs; C-terminal amide)

Sequence of ARHGEF12, Q9NZN5-2 (Q9NZN5 other isoform, or with tags, fused parts or gaps): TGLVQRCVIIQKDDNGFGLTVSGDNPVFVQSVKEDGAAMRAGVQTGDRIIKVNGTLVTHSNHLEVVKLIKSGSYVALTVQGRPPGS

## FHPLGADSQV [SLC2A1, P11166]
[1]; [25]
  pKd: below the threshold
[2]; [25]
  pKd: below the threshold
[3]; [25]
  pKd: 3.88
[4]; [25]
  pKd: 3.51
[5]; [25]
  pKd: below the threshold
[6]; [25]
  pKd: below the threshold
[7]; [25]
  pKd: below the threshold
[8]; [25]
  pKd: 3.51
[9]; [25]
  pKd: below the threshold
[10]; [25]
  pKd: below the threshold
[11]; [25]
  pKd: 3.48
[12]; [25]
  pKd: below the threshold
[13]; [25]
  pKd: below the threshold
[14]; [25]
  pKd: below the threshold
[15]; [25]
  pKd: 4.25
[16]; [25]
  pKd: below the threshold
[17]; [25]
  pKd: below the threshold
[18]; [25]
  pKd: below the threshold
[19]; [25]
  pKd: below the threshold
[20]; [25]
  pKd: below the threshold
[21]; [25]
  pKd: 3.53
[22]; [25]
  pKd: below the threshold
[23]; [25]
  pKd: below the threshold
[24]; [25]
  pKd: 4.29

## RRRKRKRTYL [HPV49-L2, P36762]
[1]; [26]
  pKd: 4.68
[2]; [26]
  pKd: 3.58
[3]; [26]
  pKd: 3.82
[4]; [26]
  pKd: 3.62
[5]; [26]
  pKd: below the threshold
[6]; [26]
  pKd: 4.37
[7]; [26]
  pKd: 3.66
[8]; [26]
  pKd: below the threshold
[9]; [26]
  pKd: below the threshold
[10]; [26]
  pKd: 4.05
[11]; [26]
  pKd: below the threshold
[12]; [26]
  pKd: below the threshold
[13]; [26]
  pKd: below the threshold
[14]; [26]
  pKd: 5.71
[15]; [26]
  pKd: 4.22
[16]; [26]
  pKd: below the threshold
[17]; [26]
  pKd: 4.86
[18]; [26]
  pKd: 4
[19]; [26]
  pKd: below the threshold
[20]; [26]
  pKd: below the threshold
[21]; [26]
  pKd: 3.51
[22]; [26]
  pKd: 3.47
[23]; [26]
  pKd: below the threshold
[24]; [26]
  pKd: 3.51

## NRKREIFSNF [NHERF2, Q15599]
[1]; [26]
  pKd: below the threshold
[2]; [26]
  pKd: below the threshold
[3]; [26]
  pKd: below the threshold
[4]; [26]
  pKd: below the threshold
[5]; [26]
  pKd: below the threshold
[6]; [26]
  pKd: below the threshold
[7]; [26]
  pKd: below the threshold
[8]; [26]
  pKd: below the threshold
[9]; [26]
  pKd: below the threshold
[10]; [26]
  pKd: below the threshold
[11]; [26]
  pKd: below the threshold
[12]; [26]
  pKd: below the threshold
[13]; [26]
  pKd: below the threshold
[14]; [26]
  pKd: below the threshold
[15]; [26]
  pKd: 3.89
[16]; [26]
  pKd: below the threshold
[17]; [26]
  pKd: below the threshold
[18]; [26]
  pKd: below the threshold
[19]; [26]
  pKd: below the threshold
[20]; [26]
  pKd: below the threshold
[21]; [26]
  pKd: below the threshold
[22]; [26]
  pKd: below the threshold
[23]; [26]
  pKd: below the threshold
[24]; [26]
  pKd: below the threshold

## RPLPRKVSQL [DOCK4, Q8N1I0]
[1]; [25]
  pKd: 4.62
[2]; [25]
  pKd: below the threshold
[3]; [25]
  pKd: 3.94
[4]; [25]
  pKd: below the threshold
[5]; [25]
  pKd: below the threshold
[6]; [25]
  pKd: below the threshold
[7]; [25]
  pKd: below the threshold
[8]; [25]
  pKd: below the threshold
[9]; [25]
  pKd: below the threshold
[10]; [25]
  pKd: below the threshold
[11]; [25]
  pKd: 3.73
[12]; [25]
  pKd: below the threshold
[13]; [25]
  pKd: below the threshold
[14]; [25]
  pKd: 4.51
[15]; [25]
  pKd: 4.58
[16]; [25]
  pKd: below the threshold
[17]; [25]
  pKd: 4.21
[18]; [25]
  pKd: below the threshold
[19]; [25]
  pKd: below the threshold
[20]; [25]
  pKd: below the threshold
[21]; [25]
  pKd: 3.64
[22]; [25]
  pKd: below the threshold
[23]; [25]
  pKd: below the threshold
[24]; [25]
  pKd: below the threshold

## YGIVQETTFDLGGDIH [MLLT4_int, P55196]
[1]; [27]
  pKd: below the threshold
[2]; [27]
  pKd: below the threshold
[3]; [27]
  pKd: 4.06
[4]; [27]
  pKd: below the threshold
[5]; [27]
  pKd: below the threshold
[6]; [27]
  pKd: below the threshold
[7]; [27]
  pKd: below the threshold
[8]; [27]
  pKd: below the threshold
[9]; [27]
  pKd: below the threshold
[10]; [27]
  pKd: below the threshold
[11]; [27]
  pKd: below the threshold
[12]; [27]
  pKd: below the threshold
[13]; [27]
  pKd: below the threshold
[14]; [27]
  pKd: below the threshold
[15]; [27]
  pKd: 4.01
[16]; [27]
  pKd: below the threshold
[17]; [27]
  pKd: below the threshold
[18]; [27]
  pKd: below the threshold
[19]; [27]
  pKd: below the threshold
[20]; [27]
  pKd: below the threshold
[21]; [27]
  pKd: below the threshold
[22]; [27]
  pKd: below the threshold
[23]; [27]
  pKd: below the threshold
[24]; [27]
  pKd: below the threshold

## RAVEEEESRF [PSCDBP, O60759]
[1]; [26]
  pKd: below the threshold
[2]; [26]
  pKd: below the threshold
[3]; [26]
  pKd: below the threshold
[4]; [26]
  pKd: below the threshold
[5]; [26]
  pKd: below the threshold
[6]; [26]
  pKd: below the threshold
[7]; [26]
  pKd: below the threshold
[8]; [26]
  pKd: below the threshold
[9]; [26]
  pKd: below the threshold
[10]; [26]
  pKd: below the threshold
[11]; [26]
  pKd: below the threshold
[12]; [26]
  pKd: below the threshold
[13]; [26]
  pKd: below the threshold
[14]; [26]
  pKd: below the threshold
[15]; [26]
  pKd: 4.45
[16]; [26]
  pKd: below the threshold
[17]; [26]
  pKd: 4.34
[18]; [26]
  pKd: below the threshold
[19]; [26]
  pKd: 4.09
[20]; [26]
  pKd: below the threshold
[21]; [26]
  pKd: below the threshold
[22]; [26]
  pKd: below the threshold
[23]; [26]
  pKd: below the threshold
[24]; [26]
  pKd: 4.44
